# Data published in US6875571B2, “NF-AT polypeptides and polynucleotides and screening methods for immunosuppressive agents” (The Board of Trustees of the Leland Stanford Junior …, priority 1991, dated 2005).
# B1: dominant negative NF-ATc: carboxy terminal truncation of the epitope tagged NF-ATc expression plasmid extending to the PvuII site at amino acid 463 (protein, UniProt Q13469 1-463, looked up, fragment)
# chain: MNAPERQPQPDGGDAPGHEPGGSPQDELDFSILFDYEYLNPNEEEPNAHKVASPPSGPAYPDDVLDYGLKPYSPLASLSGEPPGRFGEPDRVGPQKFLSAAKPAGASGLSPRIEITPSHELIQAVGPLRMRDAGLLVEQPPLAGVAASPRFTLPVPGFEGYREPLCLSPASSGSSASFISDTFSPYTSPCVSPNNGGPDDLCPQFQNIPAHYSPRTSPIMSPRTSLAEDSCLGRHSPVPRPASRSSSPGAKRRHSCAEALVALPPGASPQRSRSPSPQPSSHVAPQDHGSPAGYPPVAGSAVIMDALNSLATDSPCGIPPKMWKTSPDPSPVSAAPSKAGLPRHIYPAVEFLGPCEQGERRNSAPESILLVPPTWPKPLVPAIPICSIPVTASLPPLEWPLSSQSGSYELRIEVQPKPHHRAHYETEGSRGAVKAPTGGHPVVQLHGYMENKPLGLQIFIGTA
# modifications: epitope tag
# How the values were obtained:
# Assay type in all cases: cell-based, human
# [1] = test system: IL-2 promoter; experiment: Secreted alkaline phosphatase reporter in Jurkat Tag cells, IL-2 reporter; conditions: transfection, 1 uM ionomycin plus 20 ng/ml PMA
# Method: (§1) Jurkat Tag cells were transfected with vector plasmid (control) or with the dominant negative NF-ATc plasmid, plus the indicated secreted alkaline phosphatase reporter plasmid. Transfected cells were transferred to fresh culture medium 24 hours after transfection and secreted alkaline phosphatase activity was measured (Clipstone and Crabtree (1992) Nature 357: 695-698) 16 to 24 hours later, after stimulation with 1 uM ionomycin plus 20 ng/ml PMA (NF-AT and IL-2 reporters), 20 ng/ml PMA alone (AP-1 reporter) or no stimulation (RSV reporter). Bars indicate, secreted alkaline phosphatase activity from cells transfected with the dominant negative NF-ATc as a percentage of the activity from cells transfected in parallel with control plasmid, and represent data obtained from (n) independent transfections. The dominant negative NF-ATc consists of a carboxy terminal truncation of the epitope tagged NF-ATc expression plasmid extending to the PvuII site at amino acid 463.
# (§2) The dominant negative NF-ATc used consists of a carboxy terminal truncation of the epitope tagged NF-ATc expression plasmid (supra) extending to the PvuII site at amino acid 463.
# [2] = test system: NF-AT site; experiment: Secreted alkaline phosphatase reporter in Jurkat Tag cells, NF-AT reporter; conditions: transfection, 1 uM ionomycin plus 20 ng/ml PMA
# Method: as §1, §2
# [3] = test system: AP-1 site; experiment: Secreted alkaline phosphatase reporter in Jurkat Tag cells, AP-1 reporter; conditions: transfection, 20 ng/ml PMA alone
# Method: as §1, §2
# [4] = test system: RSV promoter and enhancer; experiment: Secreted alkaline phosphatase reporter in Jurkat Tag cells, RSV reporter; conditions: transfection, no stimulation
# Method: as §1, §2
molecule,measurement,setting,value
B1,inhibition of IL-2 promoter function,[1],more than 90%
same,inhibition of transcription directed by the NF-AT site,[2],more than 90%
same,transcription directed by the AP-1 site,[3],relatively unaffected
same,transcription directed by the RSV promoter and enhancer,[4],relatively unaffected
